The text below walks through data of patent publication US20120003670A1 (BLOOD CENTER RESEARCH FOUNDATION, published 2012).

B1: GPIbα D235Y, full-length, on transfected HEK-293T cells (receptor)
chain: HPICEVSKVASHLEVNCDKRNLTALPPDLPKDTTILHLSENLLYTFSLATLMPYTRLTQLNLDRCELTKLQVDGTLPVLGTLDLSHNQLQSLPLLGQTLPALTVLDVSFNRLTSLPLGALRGLGELQELYLKGNELKTLPPGLLTPTPKLEKLSLANNNLTELPAGLLNGLENLDTLLLQENSLYTIPKGFFGSHLLPFAFLHGNPWLCNCEILYFRRWLQDNAENVYVWKQGVYVKAMTSNVASVQCDNSDKFPVYKYPGKGCPTLGDEGDTDLYDYYPEEDTEGDKVRATRTVVKFPTKAHTTPWGLFYSWSTASLDSQMPSSLHPTQESTKEQTTFPPRWTPNFTLHMESITFSKTPKSTTEPTPSPTTSEPVPEPAPNMTTLEPTPSPTTPEPTSEPAPSPTTPEPTSEPAPSPTTPEPTPIPTIATSPTILVSATSLITPKSTFLTTTKPVSLLESTKKTIPELDQPPKLRGVLQGHLESSRNDPFLHPDFCCLLPLGFYVLGLFWLLFASVVLILLLSWVGHVKPQALDSGQGAALTTATQTTHLELQRGRQVTVPRAWLLFLRGSLPTFRSSLFLWVRPNGRVGPLVAGRRPSALSQGRGQDLLSTVSIRYSGHSL
notes: Some cells were also transfected with GPIbβ and GP-IX; also called single mutation D235Y
B2: GPIbα G233V, full-length, on transfected HEK-293T cells (receptor)
chain: B1 chain with G233V, Y235D
notes: Some cells were also transfected with GPIbβ and GP-IX; also called single mutation G233V
B3: GPIbα G233V/M239V, full-length, on transfected HEK-293T cells (GPIbα alone in Table 2) (receptor)
chain: B1 chain with G233V, Y235D, M239V
notes: also called double mutation G233V/M239V
B4: GPIbα M239V, full-length, on transfected HEK-293T cells (receptor)
chain: B1 chain with Y235D, M239V
notes: Some cells were also transfected with GPIbβ and GP-IX; also called single mutation M239V
B5: GPIbα G233V/D235Y/M239V, full-length, on transfected HEK-293T cells (receptor)
chain: B1 chain with G233V, M239V
notes: Some cells were also transfected with GPIbβ and GP-IX; also called triple mutation; triple GPIbα mutation
B6: GPIbα D235Y/M239V, full-length, on transfected HEK-293T cells (receptor)
chain: B1 chain with M239V
notes: Some cells were also transfected with GPIbβ and GP-IX; also called double mutation D235Y/M239V
B7: GPIbα G233V/D235Y, full-length, on transfected HEK-293T cells (receptor)
chain: B1 chain with G233V
notes: Some cells were also transfected with GPIbβ and GP-IX; also called double mutation G233V/D235Y
B8: wild-type GPIbα (SEQ ID NO:11), full-length, on transfected HEK-293T cells (receptor)
chain: B1 chain with Y235D
notes: also called wild-type control

Residue numbers refer to the chain shown, from its start. Numbers in names are those of the source.

The target of one assay is T1, von Willebrand factor (VWF) in plasma of reference standards, controls and normal individuals (human, UniProt P04275 764-2813).
T1 construct: In the assays VWF was the multimeric protein in diluted platelet poor plasma; also called PPP (source of VWF); ISTH 2
The assay is described as follows: FACS on transfected HEK-293T cells, ristocetin titration. The procedure: (§1) For FACS, about 50 μl of a 1:10 dilution of platelet poor plasma (PPP; source of VWF) in assay buffer was added to the plate and serially diluted 1:2 to final dilution of 1:80. ISTH Lot #3 (GTI; Milwaukee, Wis.) was used as a standard and diluted 1:10 in assay buffer and serially diluted 1:2 to a final dilution of 1:320. The plate was then incubated for one hour at room temperature. After the one-hour incubation, the plate was centrifuged again at 1200 rpm for 5 minutes and the supernatant was discarded.
(§2) In some experiments, the PPP was diluted in PBS containing 1% BSA and either 1 mg/ml Ristocetin A (American Biochemical & Pharmaceuticals, Ltd.; Marlton, N.J.) or 1 mg/ml Botrocetin (Sigma Aldrich).
(§3) Fluorescently labeled antibodies (anti-GPIbα; Blood Research Institute) were diluted to a final concentration of 5 μg/ml in assay buffer. Fluorescently labeled anti-VWF polyclonal was also was diluted to a final concentration of 5 μg/ml in assay buffer and added to transfected cells incubated in PPP. Normal rabbit IgG (NRIgG; Pierce) and AP-1 were added at a concentration of 5 μg/ml to transfected cells as negative and positive controls, respectively. The plate was then incubated in the dark for one hour at room temperature. Assay buffer was added to each well to bring the final volume to 150 μl, and FACS was performed using a BD LSRII System (Becton Dickinson). Results are shown in VWF:IbCo units.
As to B1, the binding result is “binds”.

Take B2: the binding result is “binds”.

In the case of B3, the binding result is on record as “binds”. Consider B4, for which the binding result is recorded as “binds”.

For B5, the binding result is listed as “binds”. For B6, the binding result is on record as “binds”. Consider B7, for which the binding result is on record as “binds”.

In the next assay the target is T1, von Willebrand factor (VWF) in plasma …. The assay is described as follows: FACS on transfected HEK-293T cells, with ristocetin or botrocetin. The method, then: as §1, §2
as §3, with “Results are shown in VWF:IbCo units.” left out
Regarding B8, the binding result is on record as “binds”.
